Data reported in article PMC4298015.

Experiments:
GST-Gli1ZF-WT = GST-Gli1ZF-WT (UniProt P08151 242-424); assay: EMSA
GST-Gli1ZF-K350A = GST-Gli1ZF-K350A (UniProt P08151 242-424, K350A); assay: EMSA
GST-Gli1ZF-K350A, sequence (P08151 242-424 K350A): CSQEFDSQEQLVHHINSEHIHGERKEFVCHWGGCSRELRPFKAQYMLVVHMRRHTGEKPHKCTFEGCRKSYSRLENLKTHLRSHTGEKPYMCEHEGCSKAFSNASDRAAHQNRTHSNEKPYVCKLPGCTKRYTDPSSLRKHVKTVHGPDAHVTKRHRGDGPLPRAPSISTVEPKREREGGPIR

GST-Gli1ZF-WT, sequence (P08151 242-424): as the sequence (P08151 242-424 K350A) above, with A109K counted along it

B1: GliBS (dsDNA)
DNA 1: TTGCCTACCTGGGTGGTCTCTCCACTT
DNA 2: AAGTGGAGAGACCACCCAGGTAGGCAA
B1: binds (GST-Gli1ZF-WT); no binding (GST-Gli1ZF-K350A).
